Laboratory results taken from patent US20230212319A1, “NOVEL ANTIGEN BINDING DOMAINS AND SYNTHETIC ANTIGEN RECEPTORS INCORPORATING THE SAME” (University of Southern California, priority 2020, published 2023).

Tested on: RAJI cells
Test: JNG assay, co-culture with RAJI cells
Type: cell-based
Conditions: JNG cells expressing construct, co-culture with Raji
Summary of the method: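 Jurkat NFAT-GFP (JNG) cells stably transduced with SARs by lentivirus, with drug selection where the construct carried a resistance gene, then co-cultured with target cells at E:T ~1:2 for ~4–18 h. % GFP-positive cells measured by FACS against parental JNG; +/- to 5+ correspond to ~5–50% GFP-positive.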

| Molecule | NFAT-GFP ASSAY: Raji |
| --- | --- |
| 22230 (protein) MALPVTALLLPLALLLHAARPDIQMTQSPSSLSASVGDRVTITCKASDHINNWLAWYQQKPGQAPKLLIYGATTLETGVPSRFSGSGSGTDYTLTISSLQPEDFATYYCQQSWNTPWTFGQGTKLEIKRLEDLKNVFPPEVAVFEPSEAEISHTQKATLVCLATGFYPDHVELSWWVNGKEVHSGVCTDPQPLKEQPALNDSRYCLSSRLRVSATFWQNPRNHFRCQVQFYGLSENDEWTQDRAKPVTQIVSAEAWGRADCGFTSESYQQGVLSATILYEILLGKATLYAVLVSALVLMAMVKRKDSRGRAKRSGSGATNFSLLKQAGDVEENPGPTSATMDWIWRILFLVGAATGAHSGPQDKLTQWPKWLEGGGGSELPTQGTFSNVSTNVSGGGGQDKLTQWPKWLEGGGGSELPTQGTFSNVSTNVSGSGGGGSGGGGSGGGGSFEQVQLQQPGAELVKPGASVKMSCKASGYAFSSYWINWMKQKPGQGLEWIGQIYPGDGDTNYNGKFKGRATLTADTSSSTAYMQLSSLTSEDSAVYFCARSITTVVGCAMDYWGQGTSVTVSSTRIQNPDPAVYQLRDSKSSDKSVCLFTDFDSQTNVSQSKDSDVYITDKCVLDMRSMDFKSNSAVAWSNKSDFACANAFNNSIIPEDTFFPSPESSCDVKLVEKSFETDTNLNFQNLSVIGFRILLLKVAGFNLLMTLRLWSSRAKRSGSGVKQTLNFDLLKLAGDVESNPGPSRGHMTEYKPTVRLATRDDVPRAVRTLAAAFADYPATRHTVDPDRHIERVTELQELFLTRVGLDIGKVWVADDGAAVAVWTTPESVEAGAVFAEIGPRMAELSGSRLAAQQQMEGLLAPHRPKEPAWFLATVGVSPDHQGKGLGSAVVLPGVEAAERAGVPAFLETSAPRNLPFYERLGFTVTADVEVPEGPRTWCMTRKPGA | 4+ (refer to approximately 5%, 10%, 20%, 30%, 40% and 50% GFP positive cells) |
| 22236 (protein) MALPVTALLLPLALLLHAARPDIQMTQSPSSLSASVGDRVTITCKASDHINNWLAWYQQKPGQAPKLLIYGATTLETGVPSRFSGSGSGTDYTLTISSLQPEDFATYYCQQSWNTPWTFGQGTKLEIKRLEDLKNVFPPEVAVFEPSEAEISHTQKATLVCLATGFYPDHVELSWWVNGKEVHSGVCTDPQPLKEQPALNDSRYCLSSRLRVSATFWQNPRNHFRCQVQFYGLSENDEWTQDRAKPVTQIVSAEAWGRADCGFTSESYQQGVLSATILYEILLGKATLYAVLVSALVLMAMVKRKDSRGRAKRSGSGATNFSLLKQAGDVEENPGPTSATMDWIWRILFLVGAATGAHSIYPPLLRTSQAMGSGGPGSGSCQFDLSTRRLKCGSGSCQFDLSTRRLKCGSGGGGSGGGGSGGGGSFEQVQLQQPGAELVKPGASVKMSCKASGYAFSSYWINWMKQKPGQGLEWIGQIYPGDGDTNYNGKFKGRATLTADTSSSTAYMQLSSLTSEDSAVYFCARSITTVVGCAMDYWGQGTSVTVSSTRIQNPDPAVYQLRDSKSSDKSVCLFTDFDSQTNVSQSKDSDVYITDKCVLDMRSMDFKSNSAVAWSNKSDFACANAFNNSIIPEDTFFPSPESSCDVKLVEKSFETDTNLNFQNLSVIGFRILLLKVAGFNLLMTLRLWSSRAKRSGSGVKQTLNFDLLKLAGDVESNPGPSRGHMTEYKPTVRLATRDDVPRAVRTLAAAFADYPATRHTVDPDRHIERVTELQELFLTRVGLDIGKVWVADDGAAVAVWTTPESVEAGAVFAEIGPRMAELSGSRLAAQQQMEGLLAPHRPKEPAWFLATVGVSPDHQGKGLGSAVVLPGVEAAERAGVPAFLETSAPRNLPFYERLGFTVTADVEVPEGPRTWCMTRKPGA | Raji (4+) (refer to approximately 5%, 10%, 20%, 30%, 40% and 50% GFP positive cells) |
| 22239 (protein) MALPVTALLLPLALLLHAARPACPYINIYNAEPANPSEKNSPTQYAYGTGGGGSGGGGSGGGGSEFDIQMTQSPSSLSASVGDRVTITCKASDHINNWLAWYQQKPGQAPKLLIYGATTLETGVPSRFSGSGSGTDYTLTISSLQPEDFATYYCQQSWNTPWTFGQGTKLEIKRLEDLKNVFPPEVAVFEPSEAEISHTQKATLVCLATGFYPDHVELSWWVNGKEVHSGVCTDPQPLKEQPALNDSRYCLSSRLRVSATFWQNPRNHFRCQVQFYGLSENDEWTQDRAKPVTQIVSAEAWGRADCGFTSESYQQGVLSATILYEILLGKATLYAVLVSALVLMAMVKRKDSRGRAKRSGSGATNFSLLKQAGDVEENPGPTSATMDWIWRILFLVGAATGAHSGPQLGPYELWELSHGSGGGGSGGGGSGGGGSFEQVQLQQPGAELVKPGASVKMSCKASGYAFSSYWINWMKQKPGQGLEWIGQIYPGDGDTNYNGKFKGRATLTADTSSSTAYMQLSSLTSEDSAVYFCARSITTVVGCAMDYWGQGTSVTVSSTRIQNPDPAVYQLRDSKSSDKSVCLFTDFDSQTNVSQSKDSDVYITDKCVLDMRSMDFKSNSAVAWSNKSDFACANAFNNSIIPEDTFFPSPESSCDVKLVEKSFETDTNLNFQNLSVIGFRILLLKVAGFNLLMTLRLWSSRAKRSGSGVKQTLNFDLLKLAGDVESNPGPSRGHMTEYKPTVRLATRDDVPRAVRTLAAAFADYPATRHTVDPDRHIERVTELQELFLTRVGLDIGKVWVADDGAAVAVWTTPESVEAGAVFAEIGPRMAELSGSRLAAQQQMEGLLAPHRPKEPAWFLATVGVSPDHQGKGLGSAVVLPGVEAAERAGVPAFLETSAPRNLPFYERLGFTVTADVEVPEGPRTWCMTRKPGA | Raji (+) (refer to approximately 5%, 10%, 20%, 30%, 40% and 50% GFP positive cells) |
| 22238 (protein) MALPVTALLLPLALLLHAARPDIQMTQSPSSLSASVGDRVTITCKASDHINNWLAWYQQKPGQAPKLLIYGATTLETGVPSRFSGSGSGTDYTLTISSLQPEDFATYYCQQSWNTPWTFGQGTKLEIKRLEDLKNVFPPEVAVFEPSEAEISHTQKATLVCLATGFYPDHVELSWWVNGKEVHSGVCTDPQPLKEQPALNDSRYCLSSRLRVSATFWQNPRNHFRCQVQFYGLSENDEWTQDRAKPVTQIVSAEAWGRADCGFTSESYQQGVLSATILYEILLGKATLYAVLVSALVLMAMVKRKDSRGRAKRSGSGATNFSLLKQAGDVEENPGPTSATMDWIWRILFLVGAATGAHSQLGPYELWELSHGSGSGSGSQLGPYELWELSHSGGGSGQLGPYELWELSHGSSGPEVQLVESGGGLVQAGGSLRLSCAASGRTFSMGWFRQAPGKEREFVAAITYSGGSPYYADSVKGRFTISRDNAKNTVYLQMNSLKPEDTAVYYCAANPTYGSDWNAENWGQGTQVTVSSGSGGGGSGGGGSGGGGSFEQVQLQQPGAELVKPGASVKMSCKASGYAFSSYWINWMKQKPGQGLEWIGQIYPGDGDTNYNGKFKGRATLTADTSSSTAYMQLSSLTSEDSAVYFCARSITTVVGCAMDYWGQGTSVTVSSTRIQNPDPAVYQLRDSKSSDKSVCLFTDFDSQTNVSQSKDSDVYITDKCVLDMRSMDFKSNSAVAWSNKSDFACANAFNNSIIPEDTFFPSPESSCDVKLVEKSFETDTNLNFQNLSVIGFRILLLKVAGFNLLMTLRLWSSRAKRSGSGVKQTLNFDLLKLAGDVESNPGPSRGHMTEYKPTVRLATRDDVPRAVRTLAAAFADYPATRHTVDPDRHIERVTELQELFLTRVGLDIGKVWVADDGAAVAVWTTPESVEAGAVFAEIGPRMAELSGSRLAAQQQMEGLLAPHRPKEPAWFLATVGVSPDHQGKGLGSAVVLPGVEAAERAGVPAFLETSAPRNLPFYERLGFTVTADVEVPEGPRTWCMTRKPGA | Raji (+) (refer to approximately 5%, 10%, 20%, 30%, 40% and 50% GFP positive cells) |
| 22234 (protein) MALPVTALLLPLALLLHAARPDIQMTQSPSSLSASVGDRVTITCKASDHINNWLAWYQQKPGQAPKLLIYGATTLETGVPSRFSGSGSGTDYTLTISSLQPEDFATYYCQQSWNTPWTFGQGTKLEIKRLEDLKNVFPPEVAVFEPSEAEISHTQKATLVCLATGFYPDHVELSWWVNGKEVHSGVCTDPQPLKEQPALNDSRYCLSSRLRVSATFWQNPRNHFRCQVQFYGLSENDEWTQDRAKPVTQIVSAEAWGRADCGFTSESYQQGVLSATILYEILLGKATLYAVLVSALVLMAMVKRKDSRGRAKRSGSGATNFSLLKQAGDVEENPGPTSATMDWIWRILFLVGAATGAHSQLGPYELWELSHGSGSGSGSQLGPYELWELSHSGGGSGQLGPYELWELSHGSSGPGSGSCQFDLSTRRLKCGSGSCQFDLSTRRLKCGSGGGGSGGGGSGGGGSFEQVQLQQPGAELVKPGASVKMSCKASGYAFSSYWINWMKQKPGQGLEWIGQIYPGDGDTNYNGKFKGRATLTADTSSSTAYMQLSSLTSEDSAVYFCARSITTVVGCAMDYWGQGTSVTVSSTRIQNPDPAVYQLRDSKSSDKSVCLFTDFDSQTNVSQSKDSDVYITDKCVLDMRSMDFKSNSAVAWSNKSDFACANAFNNSIIPEDTFFPSPESSCDVKLVEKSFETDTNLNFQNLSVIGFRILLLKVAGFNLLMTLRLWSSRAKRSGSGVKQTLNFDLLKLAGDVESNPGPSRGHMTEYKPTVRLATRDDVPRAVRTLAAAFADYPATRHTVDPDRHIERVTELQELFLTRVGLDIGKVWVADDGAAVAVWTTPESVEAGAVFAEIGPRMAELSGSRLAAQQQMEGLLAPHRPKEPAWFLATVGVSPDHQGKGLGSAVVLPGVEAAERAGVPAFLETSAPRNLPFYERLGFTVTADVEVPEGPRTWCMTRKPGA | Raji (+/-) (refer to approximately 5%, 10%, 20%, 30%, 40% and 50% GFP positive cells) |
| 22237 (protein) MALPVTALLLPLALLLHAARPDIQMTQSPSSLSASVGDRVTITCKASDHINNWLAWYQQKPGQAPKLLIYGATTLETGVPSRFSGSGSGTDYTLTISSLQPEDFATYYCQQSWNTPWTFGQGTKLEIKRLEDLKNVFPPEVAVFEPSEAEISHTQKATLVCLATGFYPDHVELSWWVNGKEVHSGVCTDPQPLKEQPALNDSRYCLSSRLRVSATFWQNPRNHFRCQVQFYGLSENDEWTQDRAKPVTQIVSAEAWGRADCGFTSESYQQGVLSATILYEILLGKATLYAVLVSALVLMAMVKRKDSRGRAKRSGSGATNFSLLKQAGDVEENPGPTSATMDWIWRILFLVGAATGAHSGCPKWDAARCSGGGSGPGSGSCQFDLSTRRLKCGSGSCQFDLSTRRLKCGSGGGGSGGGGSGGGGSFEQVQLQQPGAELVKPGASVKMSCKASGYAFSSYWINWMKQKPGQGLEWIGQIYPGDGDTNYNGKFKGRATLTADTSSSTAYMQLSSLTSEDSAVYFCARSITTVVGCAMDYWGQGTSVTVSSTRIQNPDPAVYQLRDSKSSDKSVCLFTDFDSQTNVSQSKDSDVYITDKCVLDMRSMDFKSNSAVAWSNKSDFACANAFNNSIIPEDTFFPSPESSCDVKLVEKSFETDTNLNFQNLSVIGFRILLLKVAGFNLLMTLRLWSSRAKRSGSGVKQTLNFDLLKLAGDVESNPGPSRGHMTEYKPTVRLATRDDVPRAVRTLAAAFADYPATRHTVDPDRHIERVTELQELFLTRVGLDIGKVWVADDGAAVAVWTTPESVEAGAVFAEIGPRMAELSGSRLAAQQQMEGLLAPHRPKEPAWFLATVGVSPDHQGKGLGSAVVLPGVEAAERAGVPAFLETSAPRNLPFYERLGFTVTADVEVPEGPRTWCMTRKPGA | Raji (5+) (refer to approximately 5%, 10%, 20%, 30%, 40% and 50% GFP positive cells) |
